Experiment: soluble on expression in E. coli; label from the status in PepcDB or PDB records

Row | Sequence | soluble on expression in E. coli
1 | MSQLYAQEPRLGIPDSMLRYGTVVTMEQGDTVYDIALPQVWVKHKKYKSRQLTPQERQELWRLIRDVKRTLPYAKMIAATLIETYEYMETMPDEKSRQKHLKRMEKEMKQQYMPEMKRLTLRQGKLLIKLIDRQCAQSSYQLLKAFLGGWKAGWWNLFARFYGASLKTRYEPDKNPEDALTERIVLLVEEKRI | not soluble
2 | MSQMSPGQARVVDPILSTHARGYRQSTLIGKKLFPVAPVAQYGGKILTFGKEAFRLYNTKRAPGANTKRIDFGYEGDPYSIVPSALEAKVPRELMRDASQVPGIDLGARSVNTVLRIMALAHEHECAQIALDPAKYNADHKVKLVGSARWTSPDSDPTKDVETAKEAIADSIGMEPNRLMLSRKALSACKYHPKLIERVKYTRAESITIDMLKALWEVEEIVVGTARVATGANDSFGDVWGPDVWLGYVSDNPDPSVEEPSFGYTYQIEGHPLVEVPYWDNNAKSWIYGVSDDNTPALSGMLAGYLIEDAGLPAALEHHHHHH | soluble
3 | MSQNATVNVDIKLGVNKFHVDEGHPHIILTENPDINEFRKLMKACPAGLYKQDDVGNIHFDPAGCLECGTCRVLCGNTILEQWQYPAGTFGIDFRYG | not soluble
4 | MSQSNHPGGKDAGSIPRVLISADRSSSGKTTISMGLMAALVSRGYKVQPFKVALDYIDPSYHTEITGRFCRNLDGYLMDEHGILDVYTHACETGGGADIAIIEGVRGLFEGFESLSDVGSTAQIAKILKCPVVFVINARSITRSAAALIGGYKNFDPDVEIAGVILNNIGGRRHAQKAKEAIEHYTGVPVLGIIPRDPSMQISMRHLGLMPALEGRRRFGDGGFENRLHGIEEIINKGIDVDRFLGIAESAKPLTALENSIFSPAVNENSQKPKIGVALDEAFNFYYRDNIDLLEIAGAEIVYFSPVNDPGLPEVDGLYIGGGYPELFAAELEANETMRKSIKEASAAGMPIYAECGGLMYLTEKISTGVPGKGTYHDASMPESTYSMVGALPGHTIMGQTRVVSYNIGTLARDCPIGKKGNSFKGHEFHHSEILEIPDDAEFAIALTRGTGIRGDRDGLIVNNTIGSYAHLHGVAYRELAGSLVEAARKFRDSRVSSLEHHHHHH | soluble
5 | MSRARCERCLRPAGHCLCPLIPQLPSRTRVLLLQHPSEVNHALNTARLAALGLNNAELVVGEVFEELPALLDQPGYRACLLFPADDARPLQAYAETDVPLLLVVPDGTWRKARKLLHLNPLLAALPRVTLATGVESRYRLRKAPGPGALSTVEAIVQALQVLEAPASFEPLLRPFEALIEGQIAAMGEDTYQRNHAKSAAALEHHHHHH | not soluble
6 | MSRAVSRLIEACGRLSITQRSQMHFFRPPPTSSILPPLVTPSTTIVEKSIELPSLENPQQIYTFPTLHRSPIVAPGAILTEILEKLAPTAEKGFLIAPGTPNKSPMWLSPRLLTIRRKKMKKHKRRRRYDRDFFKYQKYHREKKLKSEREFQKRMKSLLTELEAFNPEKYVKDTIRMANKEWQDELAPTGRKLYPHWSRFMSLEQLYGLPKSEYIDKRAGLPTPEEAEQIKALKEKYAKLYRKK | soluble
7 | MSRFFHAKEDSDSDTSSSEDEVEDQKVNKSAKFRDDLDFMAGPEEDEKRVVRAQKDKKFDELKGIIKQNRDAKSNKDLNRLLTGFDSLAKAYDKSKTVFQRQNVANPRFYIRSLVEIEDYVNKLWDDKDAKSALSKNNAKALPPLRQKLKKYIKDQQLQDLVTDYRVNPDEDGYETPEDEDDDDFGEVSESKAEKSPGKPSEKAAVSDSDSDSDDDDSSNWSSEPESNSSDDEDSVTKMEQLRRYFLKKEFRVESKDDKKEKKKRVIRVKEAVEEDDDADWTPVNREKSVVHFDPKEEVTHDVMIKKLNEVMSARGKRTTDRNQHVANLRKLLEVSEEKELGLGINVKISFCIISALFELNAKISDHMEYETFMTTLQTVNSLLDLLIGTDRVKLSVTYAEEDENLKDDTQEYRIQGSILIAVQRLDGELAKILQNADCHSNDYIEKLKAEKDMCSLIEKAEKYVELRNDSGIFDKHEVCKVYMMRIEHAYYKYQDQNEEDAGKLMDYLCNKIYTLDDEKRLRQRAMLCHVYYLAVHDKWHRARDLLLMSHMQAIVDHSDVDTQILYNRTICQLGLCAFRHGFIREAHQGLSEIQNTQRAKELLAQAVGTRQHEKTAEQEKIDRSRQVPYHMHINVELMECVYLICSMLLEIPHMASCEFEMRRRMLSRSFHYQLKQSEKASLTGPPENTREHVVAASKAMLNGDWKKCQDYIVNDKMNQKVWNLFHNAETVKGMVVRRIQEESLRTYLLTYSTVYATVSLKKLADLFELSKKDVHSIISKMIIQEELSATLDEPTDCLIMHRVEPSRLQMLALNLSDKLQTLAENNEQILEPRTGRGGYQGPGSWFPGRNERQGDKQKGSGGYQGERRGGQGQDGKRGNWGSQGGQQRRHPQKPRAF | not soluble
8 | MSRFNPSPVSLSVTLGLMFSASAFAQDATKTDETMVVTAAGYAQVIQNAPASISVISREDLESRYYRDVTDALKSVPGVTVTGGGDTTDISIRGMGSNYTLILVDGKRQTSRQTRPNSDGPGIEQGWLPPLQAIERIEVIRGPMSTLYGSDAIGGVINIITRKDQQQWSGNVQLSTVVQENRASGDEQSANFFVTGPLSDALSLQVYGQTTQRDEDEIEHGYGDKSLRSLTSKLNYQLNPDHQLQLEAGVSAQDRENNVGKSAQSSGCRGTCSNTDNQYRRNHVAVSHQGDWQDVGQSDTYLQYEENTNKSREMSIDNTVFKSTLVAPIGEHMLSFGVEGKHESLEDKTSNKISSRTHISNTQWAGFIEDEWALAEQFRLTFGGRLDHDKNYGSHFSPRVYGVWNLDPLWTVKGGVSTGFRAPQLREVTPDWGQVSGGGNIYGNPDLKPETSINKELSLMYSTGSGLAASLTAFHNDFKDKITRVACPANICTAGPNQWGAAPTYRVNIDEAETYGAEATLSLPITESVELSSSYTYTHSEQKSGNFAGRPLLQLPKHLFNANLSWQTTDRLNSWANLNYRGKEMQPEGGASNDDFIAPSYTFIDTGVTYALTDTATIKAAVYNLFDQEVNYAEYGYVEDGRRYWLGLDIAF | not soluble
9 | MSRFWSRWYSGLVSCTARVIMIDLNHLDTIANRLSDLLPPALYESRGELQTLFKDVLQAGLAKLDLVTREEFEIQRVILLSTREKLETLLHTLVLLEDRLTDQGKNLEHHHHHH | not soluble
10 | MSRIVAIDYGRKRTGIAVSDTLQLIANGLTTVPTHELLNFIGGYVAKEPVERIIIGLPKQMNNEASENMKNIEPFVRSLKKRFPELPVEYVDERFTSVLAHRTMLEAGLKKKDRQNKALVDEISATIILQTYLESKRF | not soluble
11 | MSRIVNVKLSLKRYEYEKPFHITGSVSSESRNVEVEIVLESGVKGYGEASPSFRVNGERVEALLAIENAVREMITGIDVRNYARIFEITDRLFGFPSLKAAVQFATLDALSQELGTQVCYLLGGKRDEIETDKTVGIDTVENRVKEAKKIFEEGFRVIKIKVGENLKEDIEAVEEIAKVTRGAKYIVDANMGYTQKEAVEFARAVYQKGIDIAVYEQPVRREDIEGLKFVRFHSPFPVAADESARTKFDVMRLVKEEAVDYVNIKLMKSGISDALAIVEIAESSGLKLMIGCMGESSLGINQSVHFALGTGAFEFHDLDSHLMLKEEVFRGKFIQDGPRMRVKDQ | soluble
12 | MSRLTELLRQVRKADAQLGTDLEAEVAALTKRRTFGLVFEQHQPEAVELPGRVVRRGDKVRVLPPRGGTKAGDQRLWRTTRIECVDGQRVAHLAELDVEEPETRAVLADDVVVVAEFRDRIYPGLVETGRVERGGDKPFHTVVNAENYHALEMLTYTHRHSIDAIYIDPPYNTGARDWKYDNDYVASDDDYRHSKWLAFMERRLKICRELMRSDATLVATIDEHEVNRLGVLLDQLFPESTRQLVTIVNNPKGVTQGYLSRVEEYAFFVFGPDARIGSVDDDLLTHRDMADAEGELQRPRWKGLLRSGDDSLRADRKDMFYPVWFDESTGRLSHAGEALPLDETPDFSPQDGLTPIWPIRRDMKEGPTRAAPRRSILDYALHPHL | not soluble
13 | MSRSSVTGKEFVIRYVFNDVSNMNENDMRISTVEEYFNVPWIFQIQRNNGNLGIYLRCRKLKGQEMWSMFTELELKLISVYSDTRDQKCKTDMCFGHDSGKFYSSYGWSEFISWNELETSFMDAGSITVEARVIINKSIGFYTPKLMNFDEKKKEYSDIVVLVDGQRFYLLKKFLAFHSTFFESLFLGGFYEAKLTEVPLYDIDVDDFQKFLEVLYGFPVINDNTVEGILLLADMYQTPLVSELCEDFLIQTTGKTYKKKLQMAIKFNLENLKQFCISMIKSPFDLRSMIPSDISSIDHSTLAALFTKSLTLMK | not soluble

— the DeepSol protein solubility set
